Key:
[1] = molecular target: T1, 人全长重组tau(2N4R) (human, UniProt P10636 2-758); experiment: SPR, single-cycle kinetics
T1 construct: also called human full-length recombinant tau; 全长重组Tau蛋白

[2] = molecular target: T1, 人全长重组tau(2N4R); experiment: SPR, Biacore T200, 25 °C, mAb captured by anti-Fc on a CM4 chip, tau as analyte, 1:1 Langmuir fit

T1 sequence (P10636 other isoform, or with tags, fused parts or gaps limits assumed): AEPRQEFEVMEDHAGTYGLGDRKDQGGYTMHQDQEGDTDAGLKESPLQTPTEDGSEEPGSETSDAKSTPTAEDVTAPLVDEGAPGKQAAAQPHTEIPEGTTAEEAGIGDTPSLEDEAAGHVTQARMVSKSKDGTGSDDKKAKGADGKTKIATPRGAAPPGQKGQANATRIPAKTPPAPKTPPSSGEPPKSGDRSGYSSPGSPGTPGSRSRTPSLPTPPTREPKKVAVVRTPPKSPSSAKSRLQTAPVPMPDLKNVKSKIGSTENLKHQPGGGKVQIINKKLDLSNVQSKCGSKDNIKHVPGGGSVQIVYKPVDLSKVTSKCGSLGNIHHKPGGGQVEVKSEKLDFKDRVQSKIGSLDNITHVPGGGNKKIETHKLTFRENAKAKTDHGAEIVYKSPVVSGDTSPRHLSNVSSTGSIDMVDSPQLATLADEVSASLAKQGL

binding result [1] | binding result [2] | Binder
binds |  | PT1B1183 (antibody, human IgG1, kappa, V domains shown, Humanised antibody obtained from PT1B1153 by modifying framework region 2 of the light chain) VH: QVQLVQSGAEVKKPGASVKVSCKASGYTFTSYWITWVRQRPGQGLEWMGDIHPGRGSTKYAQKLQGRVTMTTDTSTSTAYMELRSLRSDDTAVYYCARRWGFDYWGQGTLVTVSS VL: DIVMTQTPLSSPVTLGQPASISCRSSKSLLYKDGKTYLNWFQQRPGQSPRLLIYLMSTRASGVPDRFSGSGAGTDFTLKISRVEAEDVGVYYCQQLVDYPLTFGQGTKLEIKR
 | binds | PT1B545 (antibody, mouse IgG2a, kappa, V domains shown, Parental mouse mAb; also called PT/66; 亲本mAb PT/66) VH: QVQLQQPGAELVKPGASVKMSCKASGYTFTSYWITWVKQRPGQGLEWIGDIHPGRGSTKSNEKFKSKATLTVDTSSSTAYMQFSSLTSEDSAVYYCARRWGFDYWGQGTTLTVSS VL: DIVITQDELSNPVTSGESVSISCRSSKSLLYKDGKTYLNWFLQRPGQSPQLLIYLMSTRASGVSDRFSGSGSGTDFTLEISRVKAEDVGVYYCQQLVDYPLTFGAGTKLELKR
